Experimental data reported in article PMC8565929 (eLife, 2021).

B1: Swi3-3FLAG (natural protein, S. pombe, UniProt O14350 1-181, looked up)
chain: MSTAASDSGVEKLVEENKREEVKKNEEEKEFDLGLEENPDSVKKPRKRLAKFDEERLISENGIPKLRKMMRKVKLKGKGHEAKDLKQLLGMYHIWTHELYPRATFDDSISYLKTLGKHRSVKVRRRGWINEIAVENGSDSNASLFTGPSSNSLVNLTSGDPYVQDTADDAFVAQDNDTQLE
B2: Recombinant his-tagged FL-Hst4 (pET28a) (natural protein, S. pombe, UniProt Q9UR39 1-415, looked up)
chain: MKVEEHVPLIQESRKRKCQSSENASKRQQLLSKLPLRLHTGNENVDLSPLVSAIRKAKRIVVVTGAGISCDAGIPDFRSSEGLFSSLRAEYKLNCSGKELFDGSVYRDLKSVNIFHAMIRKLHMLSNNARPTDFHLFLSQLAQESKLLRLYTQNIDFLETRLEGLQTCIPLPQSAPWPTTIPLHGTLEVVSCTRCSFLKKFNPDIFDRNGVTVCPDCKTENEVRRIAGKRSVIEGCLRPRIVLYNEIHPDSESIGSVCSQDLKSRPDCLIVAGTSCKIPGVKRIIKEMSNCVHKQKGNVIWLNYDEPTKDFLNLCDLVVQGDLQIAIRRLKPLLDAPSWKLKSHSAKRTSKQKSSEQTKITSSTKITKAIGLNTKSNDSSKKDNTSFQLHQVLNSIEIPKVEIKQEVEYATPSPL

Columns and labels:
Assay in all cases: pull-down
[1] = target: B2
[2] = target: DDK (Hsk1-HA with Dfp1-myc) (S. pombe, UniProt P50582 1-507; O59836 1-545)
Sequence of DDK (Hsk1-HA with Dfp1-myc) (P50582 whole entry, chain 1 of 2): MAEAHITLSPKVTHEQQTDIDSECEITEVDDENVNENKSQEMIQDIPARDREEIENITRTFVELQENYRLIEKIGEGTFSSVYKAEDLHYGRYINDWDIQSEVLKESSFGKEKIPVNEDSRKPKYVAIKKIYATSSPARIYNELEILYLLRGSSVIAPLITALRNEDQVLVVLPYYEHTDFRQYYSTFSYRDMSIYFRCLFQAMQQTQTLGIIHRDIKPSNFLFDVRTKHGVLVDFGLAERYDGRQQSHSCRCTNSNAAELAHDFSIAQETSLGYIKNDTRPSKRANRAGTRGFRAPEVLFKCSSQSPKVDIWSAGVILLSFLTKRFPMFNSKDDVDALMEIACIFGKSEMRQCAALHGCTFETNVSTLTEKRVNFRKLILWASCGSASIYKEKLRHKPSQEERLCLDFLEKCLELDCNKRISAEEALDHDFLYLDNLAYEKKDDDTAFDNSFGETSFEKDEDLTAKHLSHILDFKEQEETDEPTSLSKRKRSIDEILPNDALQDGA
Sequence of DDK (Hsk1-HA with Dfp1-myc) (O59836 whole entry, chain 2 of 2): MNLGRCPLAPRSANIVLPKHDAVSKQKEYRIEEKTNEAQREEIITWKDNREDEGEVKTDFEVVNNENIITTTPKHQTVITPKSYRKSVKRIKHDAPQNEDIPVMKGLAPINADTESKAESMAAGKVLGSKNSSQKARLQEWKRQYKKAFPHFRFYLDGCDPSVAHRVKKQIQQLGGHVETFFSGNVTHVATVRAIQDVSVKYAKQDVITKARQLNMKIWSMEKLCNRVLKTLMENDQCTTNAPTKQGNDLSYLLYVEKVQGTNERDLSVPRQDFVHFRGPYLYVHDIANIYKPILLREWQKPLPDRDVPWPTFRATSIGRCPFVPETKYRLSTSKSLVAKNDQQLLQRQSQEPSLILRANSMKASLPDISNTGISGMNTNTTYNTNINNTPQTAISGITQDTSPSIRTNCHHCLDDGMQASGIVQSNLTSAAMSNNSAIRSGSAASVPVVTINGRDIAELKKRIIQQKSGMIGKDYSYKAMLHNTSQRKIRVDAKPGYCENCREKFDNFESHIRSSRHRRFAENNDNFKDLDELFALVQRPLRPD

Swi1-3FLAG = Swi1-3FLAG (S. pombe, UniProt Q9UUM2 1-971)
Sequence of Swi1-3FLAG (Q9UUM2 whole entry): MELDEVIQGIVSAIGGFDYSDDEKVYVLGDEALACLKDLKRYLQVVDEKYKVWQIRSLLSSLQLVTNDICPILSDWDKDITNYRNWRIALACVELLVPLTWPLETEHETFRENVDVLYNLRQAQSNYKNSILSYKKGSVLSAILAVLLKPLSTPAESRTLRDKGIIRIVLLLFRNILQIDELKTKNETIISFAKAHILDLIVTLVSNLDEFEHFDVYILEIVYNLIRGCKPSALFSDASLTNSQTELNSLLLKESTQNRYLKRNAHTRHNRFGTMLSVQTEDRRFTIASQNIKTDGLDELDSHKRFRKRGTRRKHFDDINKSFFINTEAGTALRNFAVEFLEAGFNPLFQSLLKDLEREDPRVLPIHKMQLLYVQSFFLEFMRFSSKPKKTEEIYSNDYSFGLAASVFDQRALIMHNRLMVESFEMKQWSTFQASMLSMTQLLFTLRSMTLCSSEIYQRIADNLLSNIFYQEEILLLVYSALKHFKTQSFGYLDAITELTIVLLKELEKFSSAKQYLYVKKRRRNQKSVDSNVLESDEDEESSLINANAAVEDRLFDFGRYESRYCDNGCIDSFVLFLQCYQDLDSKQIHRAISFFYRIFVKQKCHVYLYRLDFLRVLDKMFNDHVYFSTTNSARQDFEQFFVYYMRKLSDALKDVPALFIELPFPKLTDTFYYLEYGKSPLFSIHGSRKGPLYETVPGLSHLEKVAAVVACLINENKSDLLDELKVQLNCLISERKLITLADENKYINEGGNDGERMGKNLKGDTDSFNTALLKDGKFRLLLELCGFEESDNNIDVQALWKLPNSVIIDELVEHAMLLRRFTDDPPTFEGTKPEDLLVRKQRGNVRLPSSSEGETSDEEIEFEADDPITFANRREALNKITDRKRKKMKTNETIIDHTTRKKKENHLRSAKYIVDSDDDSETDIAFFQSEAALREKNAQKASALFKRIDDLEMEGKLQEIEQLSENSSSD

binding result [1]	binding result [2]	binding result (Swi1-3FLAG)	Binder
binds			B1
	binds	binds	B2
